Data reported in US20160228506A1, “Compositions and Formulations for Prevention and Reduction of Tumorigenesis, Cancer Cell Proliferation and Invasion, and Methods of Production and Use Thereof in Cancer Treatment” (PRONUTRIA, INC., priority 2013, published 2016).

B1: SEQID-00648: protein of the 168 nutritive polypeptide library (protein)
chain: MKRVHLPTDRETGKFRGFAFVEMNTEEEEIHAIEELDGAEWMGREIRVNLARPREDKKPSDRGGRKPRY
modifications: Arthrospira platensis C1
notes: protein of the 168 nutritive polypeptide library
B2: SEQID-00641: protein of the 168 nutritive polypeptide library (protein, listed as Saccharomyces cerevisiae)
chain: MLPRSALARSLQLQRGVAARFYSEGSTGTPRGSGSEDSFVKRERATEDFFVRQREKEQLRHLKEQLEKQRKKIDSLENKIDSMTK
modifications: source: /note="strain ATCC 204508 / S288c"
notes: as for B1
B3: SEQID-00645: protein of the 168 nutritive polypeptide library (protein, listed as Saccharomyces cerevisiae)
chain: MAYTSHLSSKTGLHFGRLSLRSLTAYAPNLMLWGGASMLGLFVFTEGWPKFQDTLYKKIPLLGPTLEDHTPPEDKPN
modifications: source: /note="strain ATCC 204508 / S288c"
notes: as for B1
B4: SEQID-00643: protein of the 168 nutritive polypeptide library (protein, listed as Linum usitatissimum)
chain: MVGCGRIGKLLLQRLKPFGCNLLYHDRLKMEPELETQIGAKFEEDVDAMLPKCDVVVINTPLTEKTKGMFDKDRILKMKKG
B5: SEQID-00634: protein of the 168 nutritive polypeptide library (protein, listed as Saccharomyces cerevisiae)
chain: MPPKQQLSKAAKAAAALAGGKKSKKKWSKKSMKDRAQHAVILDQEKYDRILKEVPTYRYVSVSVLVDRLKIGGSLARIALRHLEKEGIIKPISKHSKQAIYTRATASE
modifications: source: /note="strain ATCC 204508 / S288c"
notes: as for B1
B6: SEQID-00638: protein of the 168 nutritive polypeptide library (protein)
chain: MKTNELVQRVAEKAKLPKKRVRAILDLAFSAISEEIESGQPVVVRGLGKFTLKEQPARTKTNPETGETTEVPARTVVNFRVIKPSKDKEEADS
modifications: Arthrospira platensis NIES-39
notes: as for B1
B7: SEQID-00642: protein of the 168 nutritive polypeptide library (protein, listed as Saccharomyces cerevisiae)
chain: MADQENSPLHTVGFDARFPQQNQTKHCWQSYVDYHKCVNMKGEDFAPCKVFWKTYNALCPLDWIEKWDDQREKGIFAGDINSD
modifications: source: /note="strain ATCC 204508 / S288c"
notes: as for B1
B8: SEQID-00338 (BS): nutritive polypeptide (protein, listed as Saccharomyces cerevisiae)
chain: MSSSESIRMVLIGPPGAGKGTQAPNLQERFHAAHLATGDMLRSQIAKGTQLGLEAKKIMDQGGLVSDDIMVNMIKDELTNNPACKNGFILDGFPRTIPQAEKLDQMLKEQGTPLEKAIELKVDDELLVARITGRLIHPASGRSYHKIFNPPKEDMKDDVTGEALVQRSDDNADALKKRLAAYHAQTEPIVDFYKKTGIWAGVDASQPPATVWADILNKLGKD
modifications: source: /note="strain ATCC 204508 / S288c"
B9: SEQID-00001: nutritive polypeptide (protein, listed as Gallus gallus)
chain: MGSIGAASMEFCFDVFKELKVHHANENIFYCPIAIMSALAMVYLGAKDSTRTQINKVVRFDKLPGFGDSIEAQCGTSVNVHSSLRDILNQITKPNDVYSFSLASRLYAEERYPILPEYLQCVKELYRGGLEPINFQTAADQARELINSWVESQTNGIIRNVLQPSSVDSQTAMVLVNAIVFKGLWEKAFKDEDTQAMPFRVTEQESKPVQMMYQIGLFRVASMASEKMKILELPFASGTMSMLVLLPDEVSGLEQLESIINFEKLTEWTSSNVMEERKIKVYLPRMKMEEKYNLTSVLMAMGITDVFSSSANLSGISSAESLKISQAVHAAHAEINEAGREVVGSAEAGVDAASVSEEFRADHPFLFCIKHIATNAVLFFGRCVSP
B10: SEQID-00354: nutritive polypeptide (protein)
chain: MSLSNKLTLDKLDVKGKRVVMRVDFNVPMKNNQITNNQRIKAAVPSIKYCLDSGAKSVVLMSHLGRPDGVPMPDKYSLQPVAVELKSLLGKDVLFLKDCVGPEVEKACADPAAGSVILLENLRFHVEEEGKGKDASGNKVKAEPTKIEAFRASLSKLGDVYVNDAFGTAHRAHSSMVGVNLPKKAGGFLMKKELNYFAKALESPERPFLAILGGAKVADKIQLISNMLDKVNEMIIGGGMAFTFLKVLNNMEIGTSLFDEEGSKIVKDLMSKADKNGVKITLPVDFVTADKFDENAKTGQATVASGIPVGWMGLDCGPESSKKYAEAVARAKQIVWNGPVGVFEWEAFARGTKALMDEVVKATSRGCITIIGGGDTATCCAKWNTEDKVSHVSTGGGASLELLEGKVLPGVDALSSV
modifications: Ovis aries
B11: SEQID-00345: nutritive polypeptide (protein)
chain: MNTLDLQNQRILVTGGAGFLGKQVIDQLLKAGAKSENISVPRSHNCDLRNLEACQQAAKGQDIIIHLAAHVGGIGLNQVKPAELFYDNLMMGTQLIHSAYQAGVKKFVCVGTICAYPKFTPVPFQEDDLWNGYPEETNAPYGIAKKALLVQLQAYRQQYGFNGIYLLPVNLYGPEDNFNPKSSHVIPALVRKVYEAQQRGDKQLPVWGDGSPSREFLYSTDAARGIVMATQHYDEPDPVNLGTNSEVTIRDLVELICELMEFQGEIVWETDKPNGQPRRCLDTNRAKERFGFVAEVEFRQGLKNTIDWYRQNPDL
modifications: Arthrospira platensis NIES-39
B12: SEQID-00236: nutritive polypeptide (protein, listed as Bos taurus)
chain: ALQEAHQQTLDDLQAEEDKVNTLTKAKTKLEQQVDDLEGSLEQEKKLRMDLERAKRKLEGDLKLA
B13: SEQID-00346: nutritive polypeptide (protein)
chain: MYYDADANLDLLAGKTIAIVGYGSQGHAHALNLKDSGMNVIVGLYPGSKSATKAKDAGLTVYPVDEAAKIADLIMILLPDEVQKTVYKNEIEPNLSEGKTLAFAHGFNIHFGQVVPPENVDVIMVAPKGPGHLVRRTYQEGQGVPCLFAVYQDASGQARDRAMAYAKGIGGTRGGILETTFREETETDLFGEQAVLCGGLSALIKAGFETLVEAGYQPELAYFECLHEVKLIVDLVVEGGLAQMRDSISNTAEYGDYTRGPRVITDATRAEMRKILKEIQTGQFAREFVLENQSGKAGFTAMRRQEAEHPIEEVGHDLRAMFSWLKKKA
modifications: Arthrospira platensis NIES-39
B14: SEQID-00284: nutritive polypeptide (protein, listed as Arabidopsis thaliana)
chain: KLEHGVHVVSGTPGRVCDMIKRRSLRTRAIKLLILDESDEMLSRGFKDQIYDVYRYLPPDLQVCLVSATLPHEILEMTSKFMTEPVKILVKRDELTLEGIKQFFVAVEKEEWK
B15: SEQID-00357: nutritive polypeptide (protein)
chain: MKPLNRRTKIVATIGPASNSREVLYQMIQAGMNVVRLNFSHGSHEQHTKTVALLKEISQELKTSITLLQDLQGPKIRVGQLPDGGIQLMAGEYITLVPIDQYESKPNTIAIDYLHLGEEAEIGAQVLLDDGLLELKVEEISGNQVKCKIIEGGTLKSRKGVNLPSLTLRLPSLTEKDQQDLEFGISLGVDWVSLSFVRNAEDVRVLKDFLASKNASQISVMAKIEKPQAIANLEEIISECNGLMVARGDLGVEMSPERVPLLQKQIIRLCNQKGIPVITATQMLDSMINNPRPTRAEASDVANAIIDGTDAVMLSGESAVGKYPIRAVEMLAKIAEDVEPEINFINYPPAFNDETHAISEAINTIDKIIDLHCIIAYTCSGYTGQLAAAERPKAPVVALTPNPKVYHRLNLVWGVKPLLLEQEVESFEELINQAQTYLLVRQMASPGDKILIIGGIPSGKAKGTNFIKIHTIG
modifications: Arthrospira platensis NIES-39
B16: SEQID-00356: nutritive polypeptide (protein)
chain: MATAAEKLSALKSAVAGLNEISENEKNGFISLVGRYLSGEAQHVEWSKIQTPTDEVVVPYDTLAPTPEGSSEVKNLLDKLVVLKLNGGLGTTMGCTGPKSVIEVRDGLTFLDLIVIQIENLNSKYGSNVPLLLMNSFNTHDDTQKIVEKYQNSNIEIHTFNQSQYPRLVVEDFLPLPSKGHTDKDGWYPPGHGDVFPSLLNSGKLDALLSQGKEYVFVANSDNLGAIVDLKILNHLIQNKNEYCMEVTPKTLADVKGGTLISYEGRVQLLEIAQVPDEHVNEFKSIEKFKIFNTNNLWVNLNAVKRLVEADALKMEIIPNPKEVDGIKVLQLETAAGAAIRFFDKAIGINVPRSRFLPVKATSDLLLVQSDLYTLEDGFVIRNKARENPENPSIELGPEFKKVSNFLGRFKSIPSIVELDSLKVAGDVWFGAGVILKGKVSIVSKPGVKLEVPDGVAIVDKEINGPEDL
modifications: Glycine max
B17: SEQID-00343: nutritive polypeptide (protein)
chain: MATLIAPSHHSRVEDAEALRNAFKGWGADDKAIIAILGHRNVHQRQEIRKAYEEIYQEDLIKRLESEISGDFERAMYRWMLQPADRDAVLVNVAIKNGTKDYHVIAEIACVLSAEELLAVRRAYHRRYKCSLEEDVAANTTGNLRQLLVGLVTSYRYEGDEINVKFSQTEANVLHESVKEKKGNSEEVIRILTTRSKTQLVATFNRYRDEHGISISKKLLDQTSDDFHKVLHTAIRCINDHKKYYEKVLRNAVKKFGTDEDGLSRVIVTRAEKDLKDIKELYYKRNSVHLEDEVSKETSGDYKKFLLTLLGK
modifications: Glycine max
B18: SEQID-00298 (AN): nutritive polypeptide naturally produced in Cow (protein, listed as Bos taurus)
chain: MGLSDGEWQLVLNAWGKVEADVAGHGQEVLIRLFTGHPETLEKFDKFKHLKTEAEMKASEDLKKHGNTVLTALGGILKKKGHHEAEVKHLAESHANKHKIPVKYLEFISDAIIHVLHAKHPSDFGADAQAAMSKALELFRNDMAAQYKVLGFHG

assay: SGF digest of 168 nutritive polypeptide library, intact protein by LC-MS/MS; type: in vitro ADME; conditions: 168 nutritive polypeptide library SGF digest, LC-MS/MS spectral counts
How it was run: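 A 168-protein IMAC-purified recombinant library was digested in simulated gastric fluid and the 0 and 10 min samples were profiled by SDS-PAGE fractionation, in-gel trypsin digestion and nanoLC-MS/MS. Percent intact protein at 10 min is the ratio of spectral counts (t10/t0), summed over the peak fraction and two flanking fractions. Filters were 1% FDR and at least two unique peptides.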

Q: Which “% Intact Protein at 10 min” value does the source give for B1 here?
A: Its value is 39.5%.

Q: For B2, which “% Intact Protein at 10 min” value is on record?
A: The value was 21.2%.

Q: With B3 as the molecule, how does the “% Intact Protein at 10 min” value read?
A: The value was 0%.

Q: For B4, which “% Intact Protein at 10 min” value is on record?
A: Its value is 13.6%.

Q: Which “% Intact Protein at 10 min” value does the source give for B5 here?
A: Its value is 36.8%.

Q: For B6, which “% Intact Protein at 10 min” value is on record?
A: The value was 0%.

Q: For B7, which “% Intact Protein at 10 min” value is on record?
A: Its value is 75%.

assay: Intact half-life during simulated gastric fluid (SGF) digestion; conditions: SGF pH 1.5, pepsin:polypeptide 1:20 w/w, 37° C.; intact protein

Q: For B8, which “SGF Half-life (t½)” value is on record?
A: The value was 12 s.

Q: With B9 as the molecule, how does the “SGF Half-life (t½)” value read?
A: The value was 300 s.

Q: For B10, which “SGF Half-life (t½)” value is on record?
A: Its value is 12 s.

Q: With B11 as the molecule, how does the “SGF Half-life (t½)” value read?
A: Its value is 48 s.

Q: For B12, which “SGF Half-life (t½)” value is on record?
A: The value was 600 s.

Q: With B13 as the molecule, how does the “SGF Half-life (t½)” value read?
A: Its value is 12 s.

Q: With B14 as the molecule, how does the “SGF Half-life (t½)” value read?
A: Its value is 60 s.

Q: For B15, which “SGF Half-life (t½)” value is on record?
A: Its value is 12 s.

Q: With B16 as the molecule, how does the “SGF Half-life (t½)” value read?
A: The value was 12 s.

Q: Which “SGF Half-life (t½)” value does the source give for B17 here?
A: Its value is 18 s.

Q: With B18 as the molecule, how does the “SGF Half-life (t½)” value read?
A: The value was 18 s.
